Where no end group is shown, it is not given here.
Target: T1, Fc-chimeric NKG2D, P26718
T1 chain: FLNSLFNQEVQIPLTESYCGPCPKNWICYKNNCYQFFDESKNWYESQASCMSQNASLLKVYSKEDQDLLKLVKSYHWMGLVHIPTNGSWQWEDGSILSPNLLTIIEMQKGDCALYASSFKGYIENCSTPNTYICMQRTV

B1: biotinylated SVH1C (quadravalent, C-terminal ε-biotinyl-lysine amide) (peptide)
peptide: NPSHPLSGGGGS
chain: KKKK
modifications: not fully specified (some residues, C-terminus); also: quadravalent: four peptide copies on lysine scaffold
Q: B1 was tested. Which Kd did it give?
A: Its Kd is 1000 nM.
